Values quoted from earlier work, collected in article doi:10.1101/2025.09.11.675682.

How the values were obtained:
Test in all cases: ITC
Conditions in all cases: cited from earlier work
[1] = target: SLP-76 157-420 (Homo sapiens) (UniProt Q13094)
LAT (Homo sapiens) = LAT (Homo sapiens) (UniProt O43561)
[2] = target: LAT 125-178 (Homo sapiens) (UniProt O43561)
[3] = target: SLP-76 159-533 (Homo sapiens) (UniProt Q13094)
[4] = target: LAT 161-180 (Homo sapiens) (UniProt O43561)
[5] = target: LAT 122-140 (Homo sapiens) (UniProt O43561)

Chain of Gads 1-322 (from UniProt O89100) (O89100 whole entry): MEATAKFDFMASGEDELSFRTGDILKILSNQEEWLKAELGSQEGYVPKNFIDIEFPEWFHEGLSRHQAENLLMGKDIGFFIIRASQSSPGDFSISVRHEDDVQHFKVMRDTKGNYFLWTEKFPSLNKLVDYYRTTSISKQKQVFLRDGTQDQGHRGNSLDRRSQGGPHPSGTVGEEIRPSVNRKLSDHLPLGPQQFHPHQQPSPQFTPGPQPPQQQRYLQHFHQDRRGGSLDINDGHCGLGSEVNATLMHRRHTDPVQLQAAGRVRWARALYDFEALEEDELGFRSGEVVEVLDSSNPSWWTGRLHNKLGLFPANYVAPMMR
Chain of SLP-76 157-420 (Homo sapiens) (Q13094 157-420): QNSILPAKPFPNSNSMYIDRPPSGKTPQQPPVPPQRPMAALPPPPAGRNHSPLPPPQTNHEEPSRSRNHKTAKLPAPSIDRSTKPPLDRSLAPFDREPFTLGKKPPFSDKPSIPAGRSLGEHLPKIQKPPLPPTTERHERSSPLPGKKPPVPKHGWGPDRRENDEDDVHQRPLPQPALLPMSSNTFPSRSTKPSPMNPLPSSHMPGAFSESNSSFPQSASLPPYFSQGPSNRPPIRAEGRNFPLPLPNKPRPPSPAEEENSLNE
Chain of Gads 1-322 (from UniProt O75791) (O75791 1-322): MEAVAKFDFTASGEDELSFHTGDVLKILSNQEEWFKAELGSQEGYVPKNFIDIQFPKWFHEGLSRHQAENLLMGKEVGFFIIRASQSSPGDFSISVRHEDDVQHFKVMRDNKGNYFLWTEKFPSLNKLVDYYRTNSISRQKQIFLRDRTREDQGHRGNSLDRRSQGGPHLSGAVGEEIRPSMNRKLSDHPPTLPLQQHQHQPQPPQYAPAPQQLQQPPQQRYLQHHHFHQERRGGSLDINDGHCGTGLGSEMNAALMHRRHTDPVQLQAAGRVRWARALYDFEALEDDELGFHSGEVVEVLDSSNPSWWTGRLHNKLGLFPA
Chain of PLC-γ1 550-846 (P19174 550-846): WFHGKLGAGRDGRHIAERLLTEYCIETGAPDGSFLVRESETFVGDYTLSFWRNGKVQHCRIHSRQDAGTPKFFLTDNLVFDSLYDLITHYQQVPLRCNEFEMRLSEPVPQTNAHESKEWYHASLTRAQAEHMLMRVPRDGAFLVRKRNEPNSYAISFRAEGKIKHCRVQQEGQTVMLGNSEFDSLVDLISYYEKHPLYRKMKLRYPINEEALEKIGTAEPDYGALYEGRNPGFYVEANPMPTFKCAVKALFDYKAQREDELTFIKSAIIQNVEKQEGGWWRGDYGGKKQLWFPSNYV
Chain of LAT 125-178 (Homo sapiens) (O43561 125-178): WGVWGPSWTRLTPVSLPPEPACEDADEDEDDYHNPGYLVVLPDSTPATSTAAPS
Chain of LAT 161-180 (Homo sapiens) (O43561 161-180): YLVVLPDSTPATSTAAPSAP
Chain of SLP-76 159-533 (Homo sapiens) (Q13094 159-533): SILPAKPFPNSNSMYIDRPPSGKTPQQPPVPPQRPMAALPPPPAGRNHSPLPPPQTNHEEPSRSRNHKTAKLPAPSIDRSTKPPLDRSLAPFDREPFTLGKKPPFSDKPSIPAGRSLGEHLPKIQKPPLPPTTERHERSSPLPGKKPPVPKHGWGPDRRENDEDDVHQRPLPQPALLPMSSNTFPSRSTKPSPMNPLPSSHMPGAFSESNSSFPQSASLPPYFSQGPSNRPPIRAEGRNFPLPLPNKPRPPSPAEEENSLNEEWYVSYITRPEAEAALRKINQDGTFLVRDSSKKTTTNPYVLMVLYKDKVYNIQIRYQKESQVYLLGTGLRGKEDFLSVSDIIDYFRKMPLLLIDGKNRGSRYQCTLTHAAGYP
Chain of PLC-γ1 1-1219 (P19174 1-1219): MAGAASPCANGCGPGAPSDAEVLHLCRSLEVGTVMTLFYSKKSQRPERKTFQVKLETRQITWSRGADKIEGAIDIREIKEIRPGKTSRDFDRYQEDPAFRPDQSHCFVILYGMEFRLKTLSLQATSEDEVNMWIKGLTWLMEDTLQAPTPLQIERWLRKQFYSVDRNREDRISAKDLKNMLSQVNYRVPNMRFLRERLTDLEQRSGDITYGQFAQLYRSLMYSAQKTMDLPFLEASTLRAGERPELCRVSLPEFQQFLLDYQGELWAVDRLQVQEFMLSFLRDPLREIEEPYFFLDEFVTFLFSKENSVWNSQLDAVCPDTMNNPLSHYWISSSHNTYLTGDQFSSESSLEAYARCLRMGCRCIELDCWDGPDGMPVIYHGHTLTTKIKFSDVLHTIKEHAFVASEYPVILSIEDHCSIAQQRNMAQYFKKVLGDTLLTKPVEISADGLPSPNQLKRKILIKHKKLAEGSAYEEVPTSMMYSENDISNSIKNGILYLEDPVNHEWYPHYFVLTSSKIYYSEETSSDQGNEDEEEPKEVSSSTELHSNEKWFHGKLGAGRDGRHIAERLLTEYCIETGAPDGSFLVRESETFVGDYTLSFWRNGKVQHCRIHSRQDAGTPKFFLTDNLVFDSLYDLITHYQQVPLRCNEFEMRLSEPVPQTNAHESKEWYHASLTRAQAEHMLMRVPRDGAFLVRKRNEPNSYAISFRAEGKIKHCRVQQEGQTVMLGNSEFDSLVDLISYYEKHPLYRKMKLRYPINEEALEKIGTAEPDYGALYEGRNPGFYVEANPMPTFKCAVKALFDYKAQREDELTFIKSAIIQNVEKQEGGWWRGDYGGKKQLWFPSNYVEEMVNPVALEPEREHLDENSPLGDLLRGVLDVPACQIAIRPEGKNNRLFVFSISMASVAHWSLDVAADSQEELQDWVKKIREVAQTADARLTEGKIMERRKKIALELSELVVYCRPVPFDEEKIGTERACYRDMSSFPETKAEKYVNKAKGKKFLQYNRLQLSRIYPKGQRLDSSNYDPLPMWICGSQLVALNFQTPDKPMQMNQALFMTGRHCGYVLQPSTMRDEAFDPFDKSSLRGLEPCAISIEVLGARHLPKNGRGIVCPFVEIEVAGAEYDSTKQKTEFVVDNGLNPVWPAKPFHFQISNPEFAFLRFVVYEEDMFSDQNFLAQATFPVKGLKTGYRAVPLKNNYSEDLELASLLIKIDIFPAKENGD
Chain of PLC-γ1 (P19174 2-1290): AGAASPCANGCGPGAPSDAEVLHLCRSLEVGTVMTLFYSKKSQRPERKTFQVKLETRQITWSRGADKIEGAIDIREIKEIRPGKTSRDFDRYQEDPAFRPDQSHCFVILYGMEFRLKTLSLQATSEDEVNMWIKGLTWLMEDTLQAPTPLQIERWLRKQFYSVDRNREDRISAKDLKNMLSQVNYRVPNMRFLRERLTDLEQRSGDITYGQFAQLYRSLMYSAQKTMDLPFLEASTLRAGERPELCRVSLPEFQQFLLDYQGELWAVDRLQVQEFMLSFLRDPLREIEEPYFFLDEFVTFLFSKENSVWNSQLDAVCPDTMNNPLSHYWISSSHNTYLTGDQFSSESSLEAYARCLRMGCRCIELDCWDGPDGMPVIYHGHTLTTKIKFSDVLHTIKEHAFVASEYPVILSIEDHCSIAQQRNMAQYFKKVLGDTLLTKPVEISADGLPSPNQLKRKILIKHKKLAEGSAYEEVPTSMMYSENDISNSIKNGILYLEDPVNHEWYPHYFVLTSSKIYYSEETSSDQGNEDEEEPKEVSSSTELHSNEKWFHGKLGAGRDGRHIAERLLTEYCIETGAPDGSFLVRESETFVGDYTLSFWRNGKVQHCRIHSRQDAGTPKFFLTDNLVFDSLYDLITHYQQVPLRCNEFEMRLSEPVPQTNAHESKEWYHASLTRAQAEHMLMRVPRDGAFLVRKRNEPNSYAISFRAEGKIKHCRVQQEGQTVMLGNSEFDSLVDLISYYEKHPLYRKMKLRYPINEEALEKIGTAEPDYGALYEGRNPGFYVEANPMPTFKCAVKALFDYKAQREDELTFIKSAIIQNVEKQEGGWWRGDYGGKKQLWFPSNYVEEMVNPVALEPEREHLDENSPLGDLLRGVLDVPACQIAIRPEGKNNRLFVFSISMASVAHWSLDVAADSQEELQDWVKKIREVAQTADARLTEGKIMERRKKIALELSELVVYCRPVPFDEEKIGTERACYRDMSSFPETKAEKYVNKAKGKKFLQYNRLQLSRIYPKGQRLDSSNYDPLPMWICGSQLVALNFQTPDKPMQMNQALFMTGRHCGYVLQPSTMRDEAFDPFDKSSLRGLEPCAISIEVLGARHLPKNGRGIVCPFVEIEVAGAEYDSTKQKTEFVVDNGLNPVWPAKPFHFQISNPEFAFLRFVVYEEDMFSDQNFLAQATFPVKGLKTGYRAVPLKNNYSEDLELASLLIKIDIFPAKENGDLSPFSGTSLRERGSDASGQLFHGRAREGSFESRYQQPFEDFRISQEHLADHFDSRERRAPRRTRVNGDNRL

Substance	Kd [1]	Kd [2]	further results
PLC-γ1 (from UniProt P19174)	3340 nM		
Gads 1-322 (from UniProt O89100)	19 nM	213 nM	Kd (LAT (Homo sapiens)): 164 nM; Kd [3]: 3.6 nM
Gads 1-322 (from UniProt O75791)	19 nM		Kd [4]: 164 nM
PLC-γ1 1-1219 (from UniProt P19174)		84 nM	
PLC-γ1 550-846 (from UniProt P19174)	3340 nM		Kd [5]: 62 nM
